This passage reports Kd results from patent US20250353894A1 (UNIVERSITAT ULM, published 2025).

Usually Kd stands for a measure of binding affinity in units of concentration.

Test [1] addresses T1, complement protein C3b (UniProt P01024 749-1663; P01024 23-667).
T1 construct: also called factor C3b
Nature of the test: not named in the sentence (SPR on C3b by Table 1). As to the method:
(§1) A surface plasmon resonance (SPR)-based assay (Schmidt et al. (2013), Journal of Immunology 190:5712-5721) was used to determine the affinity of the engineered complement inhibitors for the key complement protein C3b. 1940 response units […] of C3b were coupled to the chip. The samples were run at 25 μl/min in a concentration series with the highest and the lowest concentrations being assayed in duplicate to probe reproducibility. To get an estimation of the KD value for other proteins the plot of response (during steady state) against the assayed concentration was fitted to a 1:1 steady state affinity model.

Test [2] deals with T1, complement protein C3b. The test can be described thus: SPR, C3b coupled to chip, 1:1 steady state affinity model. As to the method: as §1
For orientation: SPR reads the build-up and loss of mass on a sensor chip optically.

T1 sequence (P01024 749-1663 limits assumed, chain 1 of 2): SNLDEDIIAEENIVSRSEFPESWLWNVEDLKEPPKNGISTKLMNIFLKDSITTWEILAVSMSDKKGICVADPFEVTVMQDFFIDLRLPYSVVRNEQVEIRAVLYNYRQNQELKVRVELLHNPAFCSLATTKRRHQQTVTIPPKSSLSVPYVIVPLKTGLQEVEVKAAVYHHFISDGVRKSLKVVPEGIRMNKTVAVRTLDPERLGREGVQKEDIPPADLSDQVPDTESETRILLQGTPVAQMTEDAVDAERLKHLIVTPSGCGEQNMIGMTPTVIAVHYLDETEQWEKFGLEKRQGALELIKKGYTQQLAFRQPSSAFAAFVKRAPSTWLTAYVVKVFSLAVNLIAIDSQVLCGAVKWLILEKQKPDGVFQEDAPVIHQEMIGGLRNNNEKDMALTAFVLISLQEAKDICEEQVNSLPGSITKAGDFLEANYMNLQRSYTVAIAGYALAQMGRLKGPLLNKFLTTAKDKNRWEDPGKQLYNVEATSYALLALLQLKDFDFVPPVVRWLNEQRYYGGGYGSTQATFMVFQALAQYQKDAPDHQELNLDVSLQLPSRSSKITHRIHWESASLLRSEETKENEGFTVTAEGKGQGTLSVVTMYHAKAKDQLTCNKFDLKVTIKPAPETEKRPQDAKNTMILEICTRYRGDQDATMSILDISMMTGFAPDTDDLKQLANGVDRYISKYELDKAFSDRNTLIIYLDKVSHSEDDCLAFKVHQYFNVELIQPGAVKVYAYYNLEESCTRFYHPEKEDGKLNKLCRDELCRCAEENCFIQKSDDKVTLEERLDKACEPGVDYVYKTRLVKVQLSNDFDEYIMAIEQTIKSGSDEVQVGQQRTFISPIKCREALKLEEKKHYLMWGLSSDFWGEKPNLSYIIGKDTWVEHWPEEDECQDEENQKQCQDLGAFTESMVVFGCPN
T1 sequence (P01024 23-667 limits assumed, chain 2 of 2): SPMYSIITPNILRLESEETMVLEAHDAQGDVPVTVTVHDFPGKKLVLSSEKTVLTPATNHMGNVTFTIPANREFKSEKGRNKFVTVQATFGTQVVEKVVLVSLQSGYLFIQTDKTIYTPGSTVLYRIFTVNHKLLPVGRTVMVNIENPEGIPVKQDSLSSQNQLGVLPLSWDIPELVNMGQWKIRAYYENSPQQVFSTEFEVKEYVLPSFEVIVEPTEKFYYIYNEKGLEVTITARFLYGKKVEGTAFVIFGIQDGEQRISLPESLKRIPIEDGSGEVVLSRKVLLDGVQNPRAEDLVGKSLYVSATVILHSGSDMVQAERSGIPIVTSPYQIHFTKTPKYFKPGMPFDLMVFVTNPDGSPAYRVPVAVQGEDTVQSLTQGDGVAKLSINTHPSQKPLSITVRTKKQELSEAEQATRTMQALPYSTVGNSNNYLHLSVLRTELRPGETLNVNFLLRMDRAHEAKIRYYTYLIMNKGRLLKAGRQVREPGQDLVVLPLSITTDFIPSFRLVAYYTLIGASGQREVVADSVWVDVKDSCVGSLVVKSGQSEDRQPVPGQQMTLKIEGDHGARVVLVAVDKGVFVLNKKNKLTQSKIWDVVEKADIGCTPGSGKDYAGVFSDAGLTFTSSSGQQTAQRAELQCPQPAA

B1: DAF(1-4)FH(19-20)CR1(15-17) (other)
chain: DCGLPPDVPNAQPALEGRTSFPEDTVITYKCEESFVKIPGEKDSVICLKGSQWSDIEEFCQRSCEVPTRLNSASLKQPYITQNYFPVGTVVEYECRPGYRREPSLSPKLTCLQNLKWSTAVEFCKKKSCPNPGEIRNGQIDVPGGILFGATISFSCNTGYKLFGSTSSFCLISGSSVQWSDPLPECREIYCPAPPQIDNGIIQGERDHYGYRQSVTYACNKGFTMIGEHSIYCTVNNDEGEWSGPPPECRGGGGGGGGGGGGGGGKCGPPPPIDNGDITSFPLSVYAPASSVEYQCQNLYQLEGNKRITCRNGQWSEPPKCLHPCVISREIMENYNIALRWTAKQKLYSRTGESVEFVCKRGYRLSSRSHTLRTTCWDGKLEYPTCAGGGGGGGHCQAPDHFLFAKLKTQTQASDFPIGTSLKYECRPEYYGRPFSITCLDNLVWSSPKDVCKRKSCKTPPDPVNGMVHVITDIQVGSRIQYSCTTGHRLIGHSSAECILSGNTAHWSTKPPICQRIPCGLPPTIANGDFISTNRENFHYGSVVTYRCNLGSRGRKVFELVGEPSIYCTSNDDQVGIWSGPAPQCII
notes: Multi-domain fusion polypeptide produced in Pichia pastoris; also called triple I; triple-I
For B1, the results for the Kd in test [1] and in test [2] were 20 nM and 22.8 nM, respectively.

B2: DAF(1-4)FH(19-20) long linker (other)
chain: DCGLPPDVPNAQPALEGRTSFPEDTVITYKCEESFVKIPGEKDSVICLKGSQWSDIEEFCQRSCEVPTRLNSASLKQPYITQNYFPVGTVVEYECRPGYRREPSLSPKLTCLQNLKWSTAVEFCKKKSCPNPGEIRNGQIDVPGGILFGATISFSCNTGYKLFGSTSSFCLISGSSVQWSDPLPECREIYCPAPPQIDNGIIQGERDHYGYRQSVTYACNKGFTMIGEHSIYCTVNNDEGEWSGPPPECRGGGGGGGGGGGGGGGKCGPPPPIDNGDITSFPLSVYAPASSVEYQCQNLYQLEGNKRITCRNGQWSEPPKCLHPCVISREIMENYNIALRWTAKQKLYSRTGESVEFVCKRGYRLSSRSHTLRTTCWDGKLEYPTCA
notes: Fusion protein with an oligo-glycine linker; also called DAF(1-4)FH(19-20)-LL
On to B2, for which the Kd in test [2] was 175 nM.

B3: FH(19-20) (other)
chain: KCGPPPPIDNGDITSFPLSVYAPASSVEYQCQNLYQLEGNKRITCRNGQWSEPPKCLHPCVISREIMENYNIALRWTAKQKLYSRTGESVEFVCKRGYRLSSRSHTLRTTCWDGKLEYPTCA
notes: also called CCPs 19 and 20 of Factor H
Consider B3, for which, in test [2], binding was put at a Kd of 4670 nM.

B4: DAF(1-4) (other)
chain: DCGLPPDVPNAQPALEGRTSFPEDTVITYKCEESFVKIPGEKDSVICLKGSQWSDIEEFCQRSCEVPTRLNSASLKQPYITQNYFPVGTVVEYECRPGYRREPSLSPKLTCLQNLKWSTAVEFCKKKSCPNPGEIRNGQIDVPGGILFGATISFSCNTGYKLFGSTSSFCLISGSSVQWSDPLPECREIYCPAPPQIDNGIIQGERDHYGYRQSVTYACNKGFTMIGEHSIYCTVNNDEGEWSGPPPECR
notes: Produced in Pichia pastoris; also called soluble DAF; sDAF
In test [2], B4 showed a Kd of 11500 nM.

B5: CR1(1-3)FH(19-20)CR1(15-17) (other)
chain: QCNAPEWLPFARPTQLTDEFEFPIGTYLNYECRPGYSGRPFSIICLKNSVWTGAKDRCRRKSCRNPPDPVNGMVHVIKGIQFGSQIKYSCTKGYRLIGSSSATCIISGDTVIWDQETPICDRIPCGLPPTITNGDFISTNRENFHYGSVVTYRCNPGSGGRKVFELVGEPSIYCTSNDDQVGIWSGPAPQCIIGGGGGGGGGGGGGGKCGPPPPIDNGDITSFPLSVYAPASSVEYQCQNLYQLEGNKRITCRNGQWSEPPKCLHPCVISREIMENYNIALRWTAKQKLYSRTGESVEFVCKRGYRLSSRSHTLRTTCWDGKLEYPTCAGGGGGGGHCQAPDHFLFAKLKTQTQASDFPIGTSLKYECRPEYYGRPFSITCLDNLVWSSPKDVCKRKSCKTPPDPVNGMVHVITDIQVGSRIQYSCTTGHRLIGHSSAECILSGNTAHWSTKPPICQRIPCGLPPTIANGDFISTNRENFHYGSVVTYRCNLGSRGRKVFELVGEPSIYCTSNDDQVGIWSGPAPQCII
notes: Multi-domain fusion polypeptide produced in Pichia pastoris
As for B5, the Kd in test [1] amounted to 40 nM; in test [2], 40.6 nM.

B6: CR1(15-17) (receptor)
chain: not shown
notes: Produced in Pichia pastoris; also called CCPs 15 to 17 of human CR1
In test [2], B6 showed a Kd of 954 nM.

B7: DAF(1-4)FH(19-20) short linker (other)
chain: DCGLPPDVPNAQPALEGRTSFPEDTVITYKCEESFVKIPGEKDSVICLKGSQWSDIEEFCNRSCEVPTRLNSASLKQPYITQNYFPVGTVVEYECRPGYRREPSLSPKLTCLQNLKWSTAVEFCKKKSCPNPGEIRNGQIDVPGGILFGATISFSCNTGYKLFGSTSSFCLISGSSVQWSDPLPECREIYCPAPPQIDNGIIQGERDHYGYRQSVTYACNKGFTMIGEHSIYCTVNNDEGEWSGPPPECRGPGGGKCGPPPPIDNGDITSFPLSVYAPASSVEYQCQNLYQLEGNKRITCRNGQWSEPPKCLHPCVISREIMENYNIALRWTAKQKLYSRTGESVEFVCKRGYRLSSRSHTLRTTCWDGKLEYPTCAKR
notes: Fusion protein; the two domains are joined directly; also called DAF(1-4)FH(19-20)-SL
On to B7, for which, in test [2], the Kd stood at 125 nM.
